Reference: publication PMC8720280 (2021)

B1: KMTR2 (antibody, V domains shown)
VH: QVQLVQSGAEMKKPGASVKVSCKTSGYTFTNYKINWVRQAPGQGLEWMGWMNPDTDSTGYPQKFQGRVTMTRNTSISTAYMELSSLRSEDTAVYYCARSYGSGSYYRDYYYGMDVWGQGTTVTVSS
VL: EIVLTQSPATLSLSPGERATLSCRASQSVSSYLAWYQQKPGQAPRLLIYDASNRATGIPARFSGSGSGTDFTLTISSLEPEDFAVYYCQQRSNWPLTFGGGTKVEIK
B2: Lexatumumab (antibody, V domains shown)
VH: EVQLVQSGGGVERPGGSLRLSCAASGFTFDDYGMSWVRQAPGKGLEWVSGINWNGGSTGYADSVKGRVTISRDNAKNSLYLQMNSLRAEDTAVYYCAKILGAGRGWYFDLWGKGTTVTVSS
VL: SSELTQDPAVSVALGQTVRITCQGDSLRSYYASWYQQKPGQAPVLVIYGKNNRPSGIPDRFSGSSSGNTASLTITGAQAEDEADYYCNSRDSSGNHVVFGGGTKLTVL

Assays:
[1] = target: T1, WT DR5 recombinant protein (IgG4-Fc tagged extracellular domain of human DR5) (human, UniProt O14763-1 56-210, biotinylated with EZ-Link Sulfo-NHS-SS-Biotin for BLI); assay: ELISA
[2] = target: T1, WT DR5 recombinant protein (IgG4-Fc …); assay: BLI
Chimp DR5 = assay: BLI
RKCSR DR5 = assay: BLI
Monkey DR5 = assay: BLI
RKCAR DR5 = assay: BLI
[3] = target: T1, WT DR5 recombinant protein (IgG4-Fc …); assay: ELISA; remark: listed apart in the source
[4] = target: T1, WT DR5 recombinant protein (IgG4-Fc …); assay: BLI; remark: listed apart in the source

Binder	Kd [1]	Kd [2]	Kd (Chimp DR5)	Kd (RKCSR DR5)	Kd (Monkey DR5)	Kd (RKCAR DR5)	Kd [3]	Kd [4]
B1	88 pM	< 1 pM						
B2	81 pM	519 pM	< 1 pM	215 pM	14 pM	266 pM	32 pM	37.6 pM
